This assay concerns the target Human complement C1q (human) (UniProt P02745). The experiment in a line: ELISA.

The values below come from PMC5964162.

Sequence of UniProt P02745 (P02745 23-245, chain 1 of 3): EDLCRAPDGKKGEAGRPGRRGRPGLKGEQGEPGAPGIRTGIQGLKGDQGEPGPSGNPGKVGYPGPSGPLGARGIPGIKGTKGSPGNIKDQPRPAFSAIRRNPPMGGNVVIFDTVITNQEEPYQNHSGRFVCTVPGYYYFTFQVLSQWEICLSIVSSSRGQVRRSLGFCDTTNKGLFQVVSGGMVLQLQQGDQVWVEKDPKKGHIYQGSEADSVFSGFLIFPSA
Sequence of UniProt P02745 (P02746 28-253, chain 2 of 3, further chain): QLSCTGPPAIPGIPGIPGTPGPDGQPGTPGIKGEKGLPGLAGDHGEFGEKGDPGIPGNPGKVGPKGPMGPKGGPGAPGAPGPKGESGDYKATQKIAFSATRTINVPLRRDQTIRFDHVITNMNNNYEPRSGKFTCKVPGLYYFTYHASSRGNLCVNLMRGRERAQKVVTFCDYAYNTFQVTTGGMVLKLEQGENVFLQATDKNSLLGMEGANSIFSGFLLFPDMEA
Sequence of UniProt P02745 (P02747 29-245, chain 3 of 3, further chain): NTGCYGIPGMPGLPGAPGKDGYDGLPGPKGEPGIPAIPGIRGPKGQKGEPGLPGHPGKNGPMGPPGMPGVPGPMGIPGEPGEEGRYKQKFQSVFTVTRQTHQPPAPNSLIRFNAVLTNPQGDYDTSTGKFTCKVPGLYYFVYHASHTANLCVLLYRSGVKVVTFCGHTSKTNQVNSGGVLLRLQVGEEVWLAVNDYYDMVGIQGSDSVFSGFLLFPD

For the substance “Recombinant SntA protein of Streptococcus suis (from UniProt Q8VUN9 1-813) (natural protein)”, the percent of C1q–IgG binding left with 50 µM SntA turned out to be 3.34%.
